Test results taken from the DeepSol protein solubility set.

Assay: soluble on expression in E. coli; label from the status in PepcDB or PDB records

Sequence | soluble on expression in E. coli
EGSENLFITGDNLEALKLLQESYLGKIDMIYIDPPYNTGKDFVYQDNFKKTKKENDLSEGILDEEGDRLVKNEKSNGRYHSDWLTMIYPRLKLARNLLSDSGIIFVSIDENEIANLELLLTEIFGENNLAGTIVWDKRNPKGDSKGVSMQHEYIVAAAKNINIFSEFKEFKRPKKNAEIIL | not soluble
MSLDSDPDTLVVHTQLGTTAPGSPTYLAAVDRFREENPGVKIKNLVNGDDLAQVYETSRLARKEADVVMVNLYDKTLAWTDVGATVDVKPYLDDWGLRGRVLPAALADWTDDEGRVRAFPYFATNWPVAYNRALLDRAGVDAIPTTGDQLIAAARKLRAKGIAPVTVGGNDWTGQKLLAQIIQTFLSQDEARHVYSTGDFGVRGARLGIEYFAHLRDAGVFADKAQGLTSDSMTTQFNTEEAAVQSAMSSALAKVPEKVAGHTEVGGWPLADGAAHDGPTVIRAYTLIGFWISPNGVRKIEQVEKFLRFMYRPDVVARFVTESGRDMALRTDAVSTGFPLVGAAQRLGSEVSQVLLPDVYVPPAAAQPLITATSTSFTRGTSPARVRAALESAYRSVEGHHHHHH | soluble
MGSDKIHHHHHHAEVDQATKPAEAKYYIAGTITDATTGQELTTAKVTLGDKSVTSSFNEQVNYKAEGYALVVSADGYYPVKRQVYLNQVSDGQTSVATVNVALVSVEAAVIPPVVPPTDPETDINEGEATKVADKAVEVAKPSESTVTDMLAGTTATPEEKKALDETLEMAGGMKVGETTPEVLADGSILAITPVKFTNPIQDAPAMVPYFYNEGCELTGDVKEVAAPVTRADGAVAADIQKAFLSNAAKALNMNAGFVQKIGYTRISVLNGYSILGYTIKGQLVSKKLTFLISGKYYEGIVSYQKSVMIYPNYYSHDSHDSHDSHGFNPNAGGGSND | not soluble
MVDTISVLNPIHLDLSVDPQDNVRISARSTTSSSASTSSDSELMSPRAEELLRMQAELRATRTALAEKDKKMTQIQVTVDAEVQELTEKLFQEAYKMVNTAEARREKAGKLLTESRLEVEVLQAEVRALKELISAPGMGQNHFKQTTSPEHKSTLSKLFNGSSSSSKKQKDAANVSDKKKASSLPSTSTYTLTPSEDREQKEANAVEEIDPILFSEFEFWREAGHPTTSHPFIDRVTVEEVEPCMLFENSELSEEIMKAIRENRVQLEPLNELKPSVRICALTNASRFCPYRVRTGDEEQEWHYVSLIARNRVSYSTFLGLGTIDNFN | not soluble
MKTALLLVDIQNDYFPNGKMELRNPVEASEYANQLLQHFRTNSEPILHIQHVAIKDDATFFLPNTEGVHIHESVRPLREETVIVKHYPNSFRETNLLEQLKRLNIEHVVVCGMMTHMCIDATVRAAFDFGFQCTVIHDACATKDLSFKNATIPAVYIHNTILASLNGVYANVISTQEFLAT | not soluble
GPGSMEREQLISSASQPRRTVQSPARWADSSLNEIPETPPESGGAGGKLCGRMSDCIRALQVSIQPIITVVSSGNGSRRNNGGGPTVTEPLVAGRMGEREASSPGRNSFNPPRTRSGRESQPQGTISAVSGPEQHSAEKAPASPITVAGEQRMSASRPASGLASVPATGAEGLAVDHLAPGSGGVPEASTNDIIRAVENDRGMLHTTEQLSAVLERLAEYLPIRVEVELDERGPGGDTSSNCFLHHLCLQILGPVRTTPHSALLGLLEDILLEDCVPTSLRISSIHFADVSFSVEPAPGMQSTEEANNVVSFDALPIFGFTTTRVASGDVAENEKVKKECTERFCAFAKNMLECYSHTTSVRLTRCCFTPSDLGRWLKLPLLQLRRLYFEKCPLTAAHLDALIRLARATSRQSGRGPAFQRLEELQLSGSLTEESVAAVLSYFSDELLDGEFALVSLRLPSLWLRVAQSHPILERQPSLIVTST | not soluble
PTLLTARLRWTDKVTLLADPPDKAMGQRSGPWMGEAITALLRAAEREVRLITPYFVPGNDGCDLLTELAQRGVRLSIMTNALSVTDMVLVHGAYRHYRLPLLKAGAELYEFGPPPRPCGRRDLLHTKVFLIDGRQAVVGSLNFDLRSAFMNTELGVLFEEPDLFAELEAMFDRQSAPDEAHRLSLEKGRLRWSVTEEGRAALARFEPDSPPALRAVSWVVGHLPIQ | not soluble
MKLREQINSISGFRYVIDELCIHSSVGRRCLMEQEFLTEASDIEVLLSRVEIAISYQADQRKQKGLDEIAHKLMQLRDIQGTIYSLSRHVVCTDIDFFEIKFLAILSEDIRDLIRFYQLDDLSSPLPDLSHIVSVLDPEEKKIPHFYIYDAYS | not soluble
LETLNNASKTIDLQGKISDVDGDTLSITLHGSARFSLNGTQVTFTPNGFVGLDQAVYSVEDGKGGYALANIVAISEDANPPVPNMAPTANDAQFTLDVAKNVTFNIDLVAQRLIADADGDALSIAHIYTANNRATKQGATGITYTPGAFRGVDQFTYVITDGKDGYAINAITVVVNDSTPANKIPTAGPVTAKMLHNDPAITISVNSAVSDADGDTLKIVSISGALGQASINPANALEMLYEPKGFVGTDRFVYVVSDDNGGYAMGEVTVTVTDSNPTAPVANTVQENTLLDTPINIDLSAYISDKETETANLVISNVTNATSPAVATLSGQTVIYTPNGFTGNDILTYTVTDGRHSTNGTIVISVNAHGAHAIQADNLEGGTEPNAPFIHDLSALISTTDPTAGELIVVNAIGGALGTATVTNNILTYTPKLGVFGKDRLIYTVKDSHNPAHYTQGTISI | not soluble
MGRTSKDKRDVYYRLAKENGWRARSAFKLLQLDKEFQLFQGVTRAVDLCAAPGSWSQVLSQKIGGQGSGHVVAVDLQAMAPLPGVVQIQGDITQLSTAKEIIQHFKGCPADLVVCDGAPDVTGLHDVDEYMQAQLLLAALNIATHVLKPGGCFVAKIFRGRDVTLLYSQLQVFFSSVLCAKPRSSRNSSIEAFAVCQGYDPPEGFIPDLSKPLLDHSYDPDFNQLDGPTRIIVPFVTCGDLSSYDSDRSYPLDLEGGSEYKYTPPTQPPISPPYQEACTLKRKGQLAKEIRPQDCPISRVDTFPQPLAAPQCHTLLAPEMEDNEMSCSP | soluble
MNQKDTRKETLEFNKLQKRLRRNVGNAITDYNMIEEGDVVMACISGGKDSFAMLDILLNLQKAAPIKFEVVAVNLDQKQPGFPEHILPEYFETLNIPYYIVDKDTYSVVKEKVPEGKTTCGLCSRLRRGTLYSFAEKIGATKLALGHHMDDIVETMFLNMFHGSRLKAMPPKLRSDDGRNVVIRPLTYCREKDLIKYAEHKDFPIIPCNL | not soluble
MGSDKIHHHHHHVHKSLSNAFEGFSFSGDITTDVLGLLHHHGRQDVAKHVLAVAKTAQRLAPIYDVDSEAAYSAGLLHDISLIFSTSQMLQTALDLGLEPVTAEKRVPYLLHGKLSAAMAEIVFGVKNDSLVHAVSCHTTLCARATTLDKVVFLADKMSWDQEYSPFKPELETALEKSLDEAVGVFLTWTWKQKEKLNSIHPWLIDAWKDYKVGDYA | not soluble
MASLATSISGSFRILVKSSSTRNGFPVISDQNPSFVLFANKRRHISRTAIFHRSAISGSSQGEKISPLASGVSSGLYSAQTFDLTPQNVDLVLEDVRPFLISDGGNVDVVSVEDGVVSLKLQGACTSCPSSSTTMTMGIERVLKEKFGDALKDIRQVFDEEVKQITVEVSEASF | not soluble
SSSGLNSEKVAALIQKLNSDPQFVLAQNVGTTHDLLDICLKRATVQRAQHVFQHAVPQEGKPITNQKSSGRCWIFSCLNVMRLPFMKKLNIEEFEFSQSYLFFWDKVERCYFFLSAFVDTAQRKEPEDGRLVQFLLMNPANDGGQWDMLVNIVEKYGVIPKKCFPESYTTEATRRMNDILNHKMREFCIRLRNLVHSGATKGEISATQDVMMEEIFRVVCICLGNPPETFTWEYRDKDKNYQKIGPITPLEFYREHVKPLFNMEDKICLVNDPRPQHKHNKLYTVEYLSNMVGGRKTLYNNQPIDFLKKMVAASIKDGEAVWFGCDVGKHFNSKLGLSDMNLYDHELVFGVSLKNMNKAERLTFGESLMTHAMTFTAVSEKDDQDGAFTKWRVENSWGEDHGHKGYLCMTDEWFSEYVYEVVVDRKHVPEEVLAVLEQEPIILPAWDPMGALA | soluble
GSQSSERVVIGSKPFNEQYILANMIAILLEENGYKAEVKEGLGGTLVNYEALKRNDIQLYVEYTGTAYNVILRKQPPELWDQQYIFDEVKKGLLEADGVVVAAKLGFRDDYALAVRADWAEENGVEKISDLAEFADQLVFGSDPEFASRPDGLPQIKKVYGFEFKEVKQMEPTLMYEAIKNKQVDVIPAYTTDSRVDLFNLKILEDDKGALPPYDAIIIVNGNTAKDEKLISVLKLLEDRIDTDTMRALNYQYDVEKKDAREIAMSFLKEQGLVK | soluble
MGSDKIHHHHHHMSRSDARICAIHQPNFFPWLGYFDKIVRADIFVLLDDVQYQKTGGNWTNRVQMMIGQGPKWVTAPVDRSYSGVRQIREIRFSPVEREWREKLCSTITASYGRAAYFREVYPFIEPIIMNDSDFLSDYNSHAIAALCDYLEIESSKLVRSSQFNLQNNATDLLIDITKAVGAVRYLCGGGAQGYQEDEKFPRHGIQLIYQNFCHPIYTQANDAPFQPGLSIVDALMHCGRRGVIELLNRK | not soluble
MDGALLIDKPKGITSTEVVERVKEKLKARKAGHTGTLDPIATGLLIILINKATRFSQFFIGMPKTYRFTVKFGAETDTYDAQGKVVETYEGELNCDKLKEVLNEFRGEILQTPPPFSAKKIKGRRAYELARKGKKVELKPVKITVYSLELLSCNPREKEAEFLAEISSGGYVRSLAYDIGKKLGIGGYMKELRRLKIDEISVEEAVSLEEFLSSENPEEYVLPVDTLFRVIPEVRLNTFEAGKILQGKRILIKNYDYEGLVKIYEDSKFIGIGELKGGVLSPKRLLV | soluble
TPDWRVSLRGSLAYNRNKVISLYYTDRLYTSETALTPDYEVGKAYNMLYGLKSLGINPITGLPVFQGADGSEISPTQNPARENFIVLGHSTPPYSGTFNLNFSYRNFDLDMDFYYVFGGIKPYNYSYVRSADSANKNAIQKQLENMWFHRGDEGKIYHSPFYISPANASLQQPNTETVGKSDYLKLAMLSLRYRVPHTFLEKNCHFIKYANIAFQASNLFMITPYKESDPETGSLAGAMQPVLTINLSLTF | not soluble
MAHHHHHHMASFNSLGSGAGDSAEAVTRLQEVLRDICATERRQEKTWLNVQPCVLNAVKLLATTAQVYAERVRQLEDVLQRLQQYTTVLVRDREVKEERYRLDAAAHREEADELWKRLLRLEAQQQEPSLQIDQRASEAFKASCKVAVEARVAPLQQELQGLRHRLKALTLSRPYSSHYNRHVRSSSVASNSSALTMRDHYYAGSDGVAASQHHHHSAASSSSTSSLLSLASSTASSLDRHEQYPRRGRIETTSAPAFTPRALASATAAASPSTQRMMREVQRLRRQWQHFLQSVPAALAQGKGSCRAGLRRRDISGSPSRRLSRLTSKGGRRDLTGGLSDVTRANGEGMESIRGSSPQPFYVPAHHPPSSSPTDAVLPKYSSGPTRARSGARATESSTALPASGRRVRWYWLGDAHSHFSTAVRRAENDFAAAKPLSERPQPALSGVSPALPWTECHAFDGRTDCWYSLGTWPTHRRHLREVERAVEEGASRNSGDVSLGWLKWTLSLVSWPDTSTMLVHRAGIYMVRVCLVRHCASASLCSGAGRAESAGHDCGSGGALALCMNGVAVAGLREVVTHALLYTHPATSPADSAAPWWVTRGRSRSTCAYAGNYCSAVDGAAHSPACASPGGSPSRRRFHRDIADATQRQRPCCEPAQLHTNTLTACLFLPAGATLQVRCRGLHNTKTIHEAFCELEYVV | not soluble
MGSDKIHHHHHHMTTLTFQSTTLSAIHQNNQIWLTVTEIGKALGYSDPFKSVKNIYDRHADEFTPQMTALIDMRTNGGIQKVRIFSLRGAHLIGMLSHTKVAKDFRRWVLDILDREAQQPKQLALPQPEKTYTVPLTEYRNCHLKTRVFLVHSTSYCPFLSNKKALTWRAWGWLGLFISLACICLDKIHRRE | not soluble
